Assay results as given in PMC10540216, “Activity Guided Azide-methyllysine Photo-trapping for Substrate Profiling of Lysine Demethylases” (Journal of the American Chemical Society, 2023).

B1: RBM14_HUMAN (protein, UniProt Q96PK6 1-669, looked up)
RNA-binding protein 14: MKIFVGNVDGADTTPEELAALFAPYGTVMSCAVMKQFAFVHMRENAGALRAIEALHGHELRPGRALVVEMSRPRPLNTWKIFVGNVSAACTSQELRSLFERRGRVIECDVVKDYAFVHMEKEADAKAAIAQLNGKEVKGKRINVELSTKGQKKGPGLAVQSGDKTKKPGAGDTAFPGTGGFSATFDYQQAFGNSTGGFDGQARQPTPPFFGRDRSPLRRSPPRASYVAPLTAQPATYRAQPSVSLGAAYRAQPSASLGVGYRTQPMTAQAASYRAQPSVSLGAPYRGQLASPSSQSAAASSLGPYGGAQPSASALSSYGGQAAAASSLNSYGAQGSSLASYGNQPSSYGAQAASSYGVRAAASSYNTQGAASSLGSYGAQAASYGAQSAASSLAYGAQAASYNAQPSASYNAQSAPYAAQQAASYSSQPAAYVAQPATAAAYASQPAAYAAQATTPMAGSYGAQPVVQTQLNSYGAQASMGLSGSYGAQSAAAATGSYGAAAAYGAQPSATLAAPYRTQSSASLAASYAAQQHPQAAASYRGQPGNAYDGAGQPSAAYLSMSQGAVANANSTPPPYERTRLSPPRASYDDPYKKAVAMSKRYGSDRRLAELSDYRRLSESQLSFRRSPTKSSLDYRRLPDAHSDYARYSGSYNDYLRAAQMHSGYQRRM
B2: SC23A_HUMAN (protein, UniProt Q15436 2-765, looked up)
Protein transport protein …: TTYLEFIQQNEERDGVRFSWNVWPSSRLEATRMVVPVAALFTPLKERPDLPPIQYEPVLCSRTTCRAVLNPLCQVDYRAKLWACNFCYQRNQFPPSYAGISELNQPAELLPQFSSIEYVVLRGPQMPLIFLYVVDTCMEDEDLQALKESMQMSLSLLPPTALVGLITFGRMVQVHELGCEGISKSYVFRGTKDLSAKQLQEMLGLSKVPLTQATRGPQVQQPPPSNRFLQPVQKIDMNLTDLLGELQRDPWPVPQGKRPLRSSGVALSIAVGLLECTFPNTGARIMMFIGGPATQGPGMVVGDELKTPIRSWHDIDKDNAKYVKKGTKHFEALANRAATTGHVIDIYACALDQTGLLEMKCCPNLTGGYMVMGDSFNTSLFKQTFQRVFTKDMHGQFKMGFGGTLEIKTSREIKISGAIGPCVSLNSKGPCVSENEIGTGGTCQWKICGLSPTTTLAIYFEVVNQHNAPIPQGGRGAIQFVTQYQHSSGQRRIRVTTIARNWADAQTQIQNIAASFDQEAAAILMARLAIYRAETEEGPDVLRWLDRQLIRLCQKFGEYHKDDPSSFRFSETFSLYPQFMFHLRRSSFLQVFNNSPDESSYYRHHFMRQDLTQSLIMIQPILYAYSFSGPPEPVLLDSSSILADRILLMDTFFQILIYHGETIAQWRKSGYQDMPEYENFRHLLQAPVDDAQEILHSRFPMPRYIDTEHGGSQARFLLSKVNPSQTHNNMYAWGQESGAPILTDDVSLQVFMDHLKKLAVSSAA
B3: SRC8_HUMAN (protein, UniProt Q14247 1-550, looked up)
Src substrate cortactin: MWKASAGHAVSIAQDDAGADDWETDPDFVNDVSEKEQRWGAKTVQGSGHQEHINIHKLRENVFQEHQTLKEKELETGPKASHGYGGKFGVEQDRMDKSAVGHEYQSKLSKHCSQVDSVRGFGGKFGVQMDRVDQSAVGFEYQGKTEKHASQKDYSSGFGGKYGVQADRVDKSAVGFDYQGKTEKHESQRDYSKGFGGKYGIDKDKVDKSAVGFEYQGKTEKHESQKDYVKGFGGKFGVQTDRQDKCALGWDHQEKLQLHESQKDYKTGFGGKFGVQSERQDSAAVGFDYKEKLAKHESQQDYSKGFGGKYGVQKDRMDKNASTFEDVTQVSSAYQKTVPVEAVTSKTSNIRANFENLAKEKEQEDRRKAEAERAQRMAKERQEQEEARRKLEEQARAKTQTPPVSPAPQPTEERLPSSPVYEDAASFKAELSYRGPVSGTEPEPVYSMEAADYREASSQQGLAYATEAVYESAEAPGHYPAEDSTYDEYENDLGITAVALYDYQAAGDDEISFDPDDIITNIEMIDDGWWRGVCKGRYGLFPANYVELRQ
B4: XRN2_HUMAN (protein, UniProt Q9H0D6 1-950, looked up)
5'-3' exoribonuclease 2: MGVPAFFRWLSRKYPSIIVNCVEEKPKECNGVKIPVDASKPNPNDVEFDNLYLDMNGIIHPCTHPEDKPAPKNEDEMMVAIFEYIDRLFSIVRPRRLLYMAIDGVAPRAKMNQQRSRRFRASKEGMEAAVEKQRVREEILAKGGFLPPEEIKERFDSNCITPGTEFMDNLAKCLRYYIADRLNNDPGWKNLTVILSDASAPGEGEHKIMDYIRRQRAQPNHDPNTHHCLCGADADLIMLGLATHEPNFTIIREEFKPNKPKPCGLCNQFGHEVKDCEGLPREKKGKHDELADSLPCAEGEFIFLRLNVLREYLERELTMASLPFTFDVERSIDDWVFMCFFVGNDFLPHLPSLEIRENAIDRLVNIYKNVVHKTGGYLTESGYVNLQRVQMIMLAVGEVEDSIFKKRKDDEDSFRRRQKEKRKRMKRDQPAFTPSGILTPHALGSRNSPGSQVASNPRQAAYEMRMQNNSSPSISPNTSFTSDGSPSPLGGIKRKAEDSDSEPEPEDNVRLWEAGWKQRYYKNKFDVDAADEKFRRKVVQSYVEGLCWVLRYYYQGCASWKWYYPFHYAPFASDFEGIADMPSDFEKGTKPFKPLEQLMGVFPAASGNFLPPSWRKLMSDPDSSIIDFYPEDFAIDLNGKKYAWQGVALLPFVDERRLRAALEEVYPDLTPEETRRNSLGGDVLFVGKHHPLHDFILELYQTGSTEPVEVPPELCHGIQGKFSLDEEAILPDQIVCSPVPMLRDLTQNTVVSINFKDPQFAEDYIFKAVMLPGARKPAAVLKPSDWEKSSNGRQWKPQLGFNRDRRPVHLDQAAFRTLGHVMPRGSGTGIYSNAAPPPVTYQGNLYRPLLRGQAQIPKLMSNMRPQDSWRGPPPLFQQQRFDRGVGAEPLLPWNRMLQTQNAAFQPNQYQMLAGPGGYPPRRDDRGGRQGYPREGRKYPLPPPSGRYNWN
B5: FIP1_HUMAN (protein, UniProt Q6UN15 1-594, looked up)
Pre-mRNA 3'-end-processing …: MSAGEVERLVSELSGGTGGDEEEEWLYGGPWDVHVHSDLAKDLDENEVERPEEENASANPPSGIEDETAENGVPKPKVTETEDDSDSDSDDDEDDVHVTIGDIKTGAPQYGSYGTAPVNLNIKTGGRVYGTTGTKVKGVDLDAPGSINGVPLLEVDLDSFEDKPWRKPGADLSDYFNYGFNEDTWKAYCEKQKRIRMGLEVIPVTSTTNKITAEDCTMEVTPGAEIQDGRFNLFKVQQGRTGNSEKETALPSTKAEFTSPPSLFKTGLPPSRNSTSSQSQTSTASRKANSSVGKWQDRYGRAESPDLRRLPGAIDVIGQTITISRVEGRRRANENSNIQVLSERSATEVDNNFSKPPPFFPPGAPPTHLPPPPFLPPPPTVSTAPPLIPPPGFPPPPGAPPPSLIPTIESGHSSGYDSRSARAFPYGNVAFPHLPGSAPSWPSLVDTSKQWDYYARREKDRDRERDRDRERDRDRDRERERTRERERERDHSPTPSVFNSDEERYRYREYAERGYERHRASREKEERHRERRHREKEETRHKSSRSNSRRRHESEEGDSHRRHKHKKSKRSKEGKEAGSEPAPEQESTEATPAE
B6: SYAM_HUMAN (protein, UniProt Q5JTZ9 24-985, looked up)
Alanine--tRNA ligase, …: GLSHRPLSSEPPAAKASAVRAAFLNFFRDRHGHRLVPSASVRPRGDPSLLFVNAGMNQFKPIFLGTVDPRSEMAGFRRVANSQKCVRAGGHHNDLEDVGRDLSHHTFFEMLGNWAFGGEYFKEEACNMAWELLTQVYGIPEERLWISYFDGDPKAGLDPDLETRDIWLSLGVPASRVLSFGPQENFWEMGDTGPCGPCTEIHYDLAGGVGAPQLVELWNLVFMQHNREADGSLQPLPQRHVDTGMGLERLVAVLQGKHSTYDTDLFSPLLNAIQQGCRAPPYLGRVGVADEGRTDTAYRVVADHIRTLSVCISDGIFPGMSGPPLVLRRILRRAVRFSMEILKAPPGFLGSLVPVVVETLGDAYPELQRNSAQIANLVSEDEAAFLASLERGRRIIDRTLRTLGPSDMFPAEVAWSLSLCGDLGLPLDMVELMLEEKGVQLDSAGLERLAQEEAQHRARQAEPVQKQGLWLDVHALGELQRQGVPPTDDSPKYNYSLRPSGSYEFGTCEAQVLQLYTEDGTAVASVGKGQRCGLLLDRTNFYAEQGGQASDRGYLVRAGQEDVLFPVARAQVCGGFILHEAVAPECLRLGDQVQLHVDEAWRLGCMAKHTATHLLNWALRQTLGPGTEQQGSHLNPEQLRLDVTTQTPLTPEQLRAVENTVQEAVGQDEAVYMEEVPLALTAQVPGLRSLDEVYPDPVRVVSVGVPVAHALDPASQAALQTSVELCCGTHLLRTGAVGDLVIIGDRQLSKGTTRLLAVTGEQAQQARELGQSLAQEVKAATERLSLGSRDVAEALRLSKDIGRLIEAVETAVMPQWQRRELLATVKMLQRRANTAIRKLQMGQAAKKTQELLERHSKGPLIVDTVSAESLSVLVKVVRQLCEQAPSTSVLLLSPQPMGKVLCACQVAQGAMPTFTAEAWALAVCSHMGGKAWGSRVVAQGTGSTTDLEAALSIAQTYALSQL
B7: MCM3_HUMAN (protein, UniProt P25205 2-808, looked up)
DNA replication licensing …: AGTVVLDDVELREAQRDYLDFLDDEEDQGIYQSKVRELISDNQYRLIVNVNDLRRKNEKRANRLLNNAFEELVAFQRALKDFVASIDATYAKQYEEFYVGLEGSFGSKHVSPRTLTSCFLSCVVCVEGIVTKCSLVRPKVVRSVHYCPATKKTIERRYSDLTTLVAFPSSSVYPTKDEENNPLETEYGLSVYKDHQTITIQEMPEKAPAGQLPRSVDVILDDDLVDKAKPGDRVQVVGTYRCLPGKKGGYTSGTFRTVLIACNVKQMSKDAQPSFSAEDIAKIKKFSKTRSKDIFDQLAKSLAPSIHGHDYVKKAILCLLLGGVERDLENGSHIRGDINILLIGDPSVAKSQLLRYVLCTAPRAIPTTGRGSSGVGLTAAVTTDQETGERRLEAGAMVLADRGVVCIDEFDKMSDMDRTAIHEVMEQGRVTIAKAGIHARLNARCSVLAAANPVYGRYDQYKTPMENIGLQDSLLSRFDLLFIMLDQMDPEQDREISDHVLRMHRYRAPGEQDGDAMPLGSAVDILATDDPNFSQEDQQDTQIYEKHDNLLHGTKKKKEKMVSAAFMKKYIHVAKIIKPVLTQESATYIAEEYSRLRSQDSMSSDTARTSPVTARTLETLIRLATAHAKARMSKTVDLQDAEEAVELVQYAYFKKVLEKEKKRKKRSEDESETEDEEEKSQEDQEQKRKRRKTRQPDAKDGDSYDPYDFSDTEEEMPQVHTPKTADSQETKESQKVELSESRLKAFKVALLDVFREAHAQSIGMNRLTESINRDSEEPFSSVEIQAALSKMQDDNQVMVSEGIIFLI

These molecules were tested on KDM4A-I71AzF (assay: CASI: photo-crosslinking with HEK293T cell extracts, StrepTactin enrichment and LC-MS/MS proteomics). Conditions: sheet "Final results but with 0.01".
Type: binding, human
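Further: lysates from HEK293T cells pretreated with a KDM4 inhibitor to raise proteome methylation, affinity-purified after ±UV, gel-resolved, trypsin-digested, with exclusive unique peptides per protein averaged per condition.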

| Molecule | Fold change (+UV/-UV) |
| --- | --- |
| B1 | 2 |
| B2 | 0.5 |
| B3 | 0.8 |
| B4 | 2.5 |
| B5 | 2 |
| B6 | 0.625 |
| B7 | 1.2 |
